B1: KRT18 (parent)
chain: PQVRDWSHYFKIIEDLRAQIFANT
B2: RSPH3 (parent)
chain: QRLEEQERRHREEKERRKKQQWEI

Variants of: B1
Experiment: protein stability index of a GFP-peptide fusion (GPS, HEK-293T) (PSI 1-6); higher = more stable
Conditions: c terminus: a fixed tail appended
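Note: lentivirally expressed fusions sorted by FACS into six bins by GFP to DsRed ratio, PSI derived from sequencing read proportions per bin multiplied by bin number.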

Variant	protein stability index
V3A	1.71
V3S	2.44
V3D	2.39
V3Y	2.69
V3I	2.05
V3H	1.94
V3K	1.79
V3G	2.13
V3Q	2.52
V3C	2.41
V3P	2.46
V3E	3.61
V3W	1.7
V3F	2.24
V3N	2.06
V3M	1.84
V3T	2.24
V3L	2.88
P1Q	2.38
P1S	2.02
P1H	1.99

Variant	protein stability index
P1W	2.86
P1R	2.86
P1M	2.12
P1I	2.24
P1G	1.94
P1A	1.31
P1D	2.83
P1L	1.73
P1C	2.3
P1N	2.5
P1F	1.7
P1E	2.13
P1K	2.42
P1V	2.2
P1Y	2.22
P1T	2.25
Q2Y	2.34
Q2K	2.08
Q2V	3.24
Q2P	3.51
Q2G	2.29

Variant	protein stability index
Q2T	2.31
Q2A	2.59
Q2F	2.55
Q2N	2.41
Q2H	2.17
Q2C	2.67
Q2W	1.82
Q2D	2.04
Q2S	2.42
Q2E	2.63
Q2L	3.67
Q2I	2.92
Q2R	1.77
Q2M	3.56
R4C	1.99
R4F	1.6
R4A	3.02
R4D	2.84
R4E	2.43

Variants of: B2
Experiment: as above
Conditions: c terminus: a fixed tail appended

Variant	protein stability index
K18L	4.27
K18H	4.56
K18P	4.72
K18D	4.59
K18I	4.94
K18C	4.32
K18E	4.6
K18Q	4.83
K18G	4.71
K18T	4.68
K18R	3.87
K18M	4.6
K18Y	3.59
K18N	4.28
K18S	4.49
K18V	4.18
K18A	4.46
K18F	4.43
K18W	4.03
E23M	4.2
E23C	4.03
E23R	4.69
E23H	4.39
E23Y	4.09
E23T	3.96

Variant	protein stability index
E23N	4.19
E23Q	3.95
E23L	4.21
E23K	4.42
E23A	3.51
E23W	3.67
E23P	4.26
E23I	3.6
E23D	4.91
E23F	3.42
E23S	3.9
E23V	3.18
E23G	4.46
R17C	4.59
R17S	4.72
R17H	4.53
R17F	4.41
R17Y	4.96
R17D	4.42
R17A	4.94
R17E	5.3
R17Q	4.82
R17W	4.02
R17K	4.92
R17N	4.76

Variant	protein stability index
R17V	4.56
R17I	3.87
R17T	4.62
R17L	5.03
R17P	4.31
R17M	4.77
R17G	4.83
K19I	4.08
K19V	4.59
K19Q	4.64
K19P	4.62
K19H	4.36
K19D	4.98
K19Y	4.47
K19C	4.9
K19S	4.77
K19G	4.33
K19E	4.98
K19W	3.89
K19T	4.87
K19M	4.79
K19F	4.02
K19R	4.78
K19N	4.59
K19L	4.59

Variant	protein stability index
E15P	3.62
E15C	3.74
E15R	3.75
E15T	4.7
E15K	4.74
E15Y	3.09
E15L	4.63
E15D	4.68
E15N	5.12
E15M	4.02
E15S	4.58
E15H	3.91
E15I	4.09
E15F	3.92
E15V	4.14
E15G	4.36
E15Q	4.85
E15W	3.18
E15A	4.44
Q21N	4.67
Q21R	4.46
Q21P	4.6
Q21A	4.43
Q21D	5.22
Q21M	4.02

Variant	protein stability index
Q21Y	4.52
Q21V	4.01
Q21G	4.61
Q21F	4.46
Q21S	3.71
Q21I	4.03
Q21C	4.17
Q21K	4.71
Q21H	4.39
Q21W	4.48
Q21E	5.39
Q21L	4.53
Q21T	4.68
E13V	4.14
E13M	3.99
E13A	3.79
E13S	4.02
E13P	4.06
E13W	3.34
E13Q	4.52
E13Y	3.77
E13T	4.32
E13N	4.16
E13G	4.55
E13D	4.74

Variant	protein stability index
E13R	4.47
E13L	3.95
E13K	4.17
E13F	3.72
E13C	3.82
E13H	4.19
E13I	3.88
I24K	4.25
I24S	4.76
I24Q	4.39
I24T	4.3
I24C	4.48
I24G	4.83
I24N	4.68
I24E	5.04
I24Y	4.82
I24F	4.34
I24A	5
I24P	5
I24R	5.14
I24V	5.01
I24D	5
I24W	4.51
I24M	4.56
I24H	4.46

Variant	protein stability index
I24L	4.78
H10V	4.45
H10L	4.87
H10Y	4.05
H10N	5.08
H10T	4.79
H10Q	5.04
H10S	4.53
H10R	3.69
H10P	4.44
H10W	4.49
H10M	4.43
E12K	3.58
E12D	5
E12T	4.28
E12L	4.42
E12I	3.64
E12Y	3.78
E12H	4.03
E12W	2.58
E12P	4.07
E12G	4.36
E12C	4.32
E12N	4.57
E12R	4.37

Variant	protein stability index
E12S	3.99
E12A	4.84
E12V	4.5
E12Q	4.2
R16Q	4.75
R16C	5.12
R16P	4.97
R16E	5.23
R16N	4.82
R16V	5.18
R16T	5.11
R16G	4.84
R16M	5.04
R16A	4.5
R16S	4.9
R16W	4.02
R16K	4.57
R16D	5.37
R16I	5
R16L	4.67
R16Y	4.74
R16H	4.77
R16F	4.06
W22G	5.48
W22Y	4.88

Variant	protein stability index
W22T	5.67
W22S	5.35
W22M	4.88
W22D	5.52
W22A	5.13
W22C	5.21
W22K	5
W22Q	5.15
W22E	5.75
W22R	5.43
W22I	4.38
W22V	5.34
W22N	5.52
W22L	5.22
W22P	4.64
W22F	4.97
W22H	4.97
Q20F	4.19
Q20R	4.12
Q20V	3.64
Q20E	4.8
Q20A	4.34
Q20S	4.8
Q20G	4.65
Q20Y	4.19

Variant	protein stability index
Q20P	4.68
Q20D	4.94
Q20I	4.6
Q20H	4.16
Q20C	4.77
Q20K	4.22
Q20N	4.56
Q20W	4.36
Q20M	3.86
Q20L	4.35
R11N	5.19
R11E	5.19
R11F	4.64
R11M	4.6
R11A	4.91
R11W	4.44
R11T	4.62
R11Q	4.67
R11H	4.51
R11S	4.35
R11G	5.08
R11I	4.22
R11C	4.83
R11P	5.34
R11L	4.25

Variant	protein stability index
R11Y	4.68
R11D	4.93
R11V	4.24
R11K	4.23
K14N	4.87
K14C	4.63
K14H	4.73
K14P	4.55
K14R	4.15
K14L	3.94
K14D	4.65
K14I	3.76
K14E	5.13
K14T	4.08
K14F	4.69
K14W	4.45
K14V	4.72
K14Y	4.34
K14G	5.25
K14A	4.83
K14M	4.25
K14S	3.26
K14Q	4.26

Source: the supplement of paper PMC10567573
